B1: COVID-19 therapeutic protein CTP-α1 (designed binder)
chain: MKSELASNVYNTNITKENVQNMNEEQAKTFLDKFNHEAEDLFYQSSGLGKGDFR
B2: COVID-19 therapeutic protein CTP-β3 (designed binder)
chain: MESELASNVYNTNITKENVQNMNEEQAKTFLDKFNHEAEDLFYQSSGLGKGDFR
B3: COVID-19 therapeutic protein CTP-α3 (designed binder)
chain: MKSQLAENVYNTNITKENVQNMNEEQAKTFLDKFNHEAEDLFYQSSGLGKGDFR
B4: COVID-19 therapeutic protein CTP-β1 (designed binder)
chain: MKSELASVNYNTNITKENVQANGEEQAKTFLDKFNHEAEDLFYQSSGLGKGDFR
B5: COVID-19 therapeutic protein CTP-α2 (designed binder)
chain: MKSDLASNVYNTNITKENVQNMNEEQAKTFLDKFNHEAEDLFYQSSGLGKGDFR
B6: COVID-19 therapeutic protein CTP-β2 (designed binder)
chain: MESELASVNYNTNITKENVQANGEEQAKTFLDKFNHEAEDLFYQSSGLGKGDFR
B7: COVID-19 therapeutic protein CTP-γ1 (designed binder)
chain: MKASSLADNVYNTNITKENVQNMNEEQAKTFLDKFNHEAEDLFYQSSGLGKGDFR
B8: COVID-19 therapeutic protein CTP-γ2 (designed binder)
chain: MKESSLADNVYNTNITKENVQNMNEEQAKTFLDKFNHEAEDLFYQSSGLGKGDFR
B9: COVID-19 therapeutic protein CTP-γ3 (designed binder)
chain: MKASELADNVYNTNITKENVQNMNEEQAKTFLDKFNHEAEDLFYQSSGLGKGDFR
B10: COVID-19 therapeutic protein CTP-δ1 (designed binder)
chain: GEFADKLKNELAKTEEQAKTFLDKFNHEAEDLFYQSSGLGKGDFR

The binders below were run against SARS-CoV2 spike protein S1 receptor binding domain (RBD) (SARS-CoV2, UniProt P0DTC2 319-541).
In the case of B1, the Kd is reported as 37.8 nM.
Work on B2 yielded a Kd of 56.4 nM.
B3 was tested, and the Kd was 35.7 nM.
In the case of B4, the Kd is reported as 82 nM.
In the case of B5, the Kd is reported as 50.4 nM.
B6 showed a Kd of 42.9 nM.
Work on B7 yielded a Kd of 47.5 nM.
B8 was tested, and the Kd was 42.8 nM.
In the case of B9, the Kd is reported as 39.2 nM.
B10 gave a Kd of 56.3 nM.

— patent publication US20230406886A1 (DAEGU GYEONGBUK INSTITUTE OF SCIENCE AND TECHNOLOGY, published 2023)
